# Source: patent EP2243792A1 (Spiber Technologies AB, dated 2010)
# B1: NT4RepCT (other)
# chain: MKASHTTPWTNPGLAENFMNSFMQGLSSMPGFTASQLDDMSTIAQSMVQSIQSLAAQGRTSPNKLQALNMAFASSMAEIAASEEGGGSLSTKTSSIASAMSNAFLQTTGVVNQPFINEITQLVSMFAQAGMNDVSASASAGASAAASAGAASGQGGYGGLGQGGYGQGAGSSAAAAAAAAAAAAGGQGGQGQGGYGQGSGGSAAAAAAAAAAAAAAAGRGQGGYGQGSGGNAAAAAAAAAAAAAAAGQGGQGGYGRQSQGAGSAAAAAAAAAAAAAAGSGQGGYGGQGQGGYGQSSASASAAASAASTVANSVSRLSSPSAVSRVSSAVSSLVSNGQVNMAALPNIISNISSSVSASAPGASGCEVIVQALLEVITALVQIVSSSSVGYINPSAVNQITNVVANAMAQVMGKLAAALEHHHHHH
# notes: Non-natural minispidroin: NT, repetitive fragment and C-terminal domain; Made as an N-terminal fusion to His6; also called NT4RepCTHis; minispidroin NT4RepCT
# B2: NT4Rep (other)
# chain: GSGNSHTTPWTNPGLAENFMNSFMQGLSSMPGFTASQLDDMSTIAQSMVQSIQSLAAQGRTSPNKLQALNMAFASSMAEIAASEEGGGSLSTKTSSIASAMSNAFLQTTGVVNQPFINEITQLVSMFAQAGMNDVSASASAGASAAASAGAASGQGGYGGLGQGGYGQGAGSSAAAAAAAAAAAAGGQGGQGQGGYGQGSGGSAAAAAAAAAAAAAAAGRGQGGYGQGSGGNAAAAAAAAAAAAAAAGQGGQGGYGRQSQGAGSAAAAAAAAAAAAAAGSGQGGYGGQGQGGYGQS
# notes: Non-natural minispidroin: NT domain plus a repetitive fragment derived from E. australis MaSp1; Made as a C-terminal fusion to His6TrxHis6, tag removed; also called minispidroin NT4Rep
# B3: NT, N-terminal domain of major ampullate spidroin (MaSp) 1 from Euprosthenops australis (protein)
# chain: GSGNSHTTPWTNPGLAENFMNSFMQGLSSMPGFTASQLDDMSTIAQSMVQSIQSLAAQGRTSPNKLQALNMAFASSMAEIAASEEGGGSLSTKTSSIASAMSNAFLQTTGVVNQPFINEITQLVSMFAQAGMNDVSA
# B4: NT5Rep (other)
# chain: GSGNSHTTPWTNPGLAENFMNSFMQGLSSMPGFTASQLDDMSTIAQSMVQSIQSLAAQGRTSPNKLQALNMAFASSMAEIAASEEGGGSLSTKTSSIASAMSNAFLQTTGVVNQPFINEITQLVSMFAQAGMNDVSASASAGASAAASAGAPGYSPAPSYSSGGYASSAASAAAAAGQGGPGGYGPAPNQGASSAAAAAAGSGQGPSGPYGTSYQISTQYTQTTTSQGQGYGSSSAGAAAAGAAGAGQGGYGGQGQGGYGQGAGGAAAAAAAAAAAAAAAGQGGQGGGGYGQGGQGGQGGQGQGGYGQGAGSSAAAAAAAAAAAAAAGRGQGGYGPGSGG
# notes: Non-natural minispidroin; Made as a C-terminal fusion to His6TrxHis6, tag removed
# Tests used:
# [1] = target: the molecule itself; experiment: self-association; polymerisation at pH 6, macroscopic formations and SEM
# [2] = target: NT, N-terminal domain of major ampullate spidroin (MaSp) 1 from Euprosthenops australis (Euprosthenops australis); experiment: self-association; DLS, 100 mM phosphate buffer, pH 6.2
# [3] = target: NT, N-terminal domain of major ampullate spidroin (MaSp) 1 from Euprosthenops australis (Euprosthenops australis); experiment: self-association; DLS, 10 mM phosphate buffer + 150 mM NaCl, pH 6.1
# [4] = target: NT, N-terminal domain of major ampullate spidroin (MaSp) 1 from Euprosthenops australis (Euprosthenops australis); experiment: self-association; DLS, 10 mM phosphate buffer, pH 7.2
# [5] = target: NT, N-terminal domain of major ampullate spidroin (MaSp) 1 from Euprosthenops australis (Euprosthenops australis); experiment: self-association; DLS, 10 mM phosphate buffer + 300 mM NaCl, pH 6.2
# [6] = target: NT, N-terminal domain of major ampullate spidroin (MaSp) 1 from Euprosthenops australis (Euprosthenops australis); experiment: self-association; DLS, 10 mM phosphate buffer + 150 mM NaCl, pH 7.2
# [7] = target: NT, N-terminal domain of major ampullate spidroin (MaSp) 1 from Euprosthenops australis (Euprosthenops australis); experiment: self-association; DLS, 10 mM phosphate buffer + 300 mM NaCl, pH 7.2
# [8] = target: NT, N-terminal domain of major ampullate spidroin (MaSp) 1 from Euprosthenops australis (Euprosthenops australis); experiment: self-association; DLS, 100 mM phosphate buffer, pH 7.2
# [9] = target: NT, N-terminal domain of major ampullate spidroin (MaSp) 1 from Euprosthenops australis (Euprosthenops australis); experiment: self-association; DLS, 10 mM phosphate buffer, pH 6.0
# [10] = target: the molecule itself; experiment: self-association; turbidimetry at different pH values
binder,measurement,setting,value
B1,binding result,[1],binds
B2,binding result,[1],binds
B3,% particles,[2],99.9%
same,Size (nm),[2],4.2 nm
same,% particles,[3],96.8%
same,Size (nm),[3],710 nm
same,% particles,[4],99.8%
same,Size (nm),[4],4.5 nm
same,% particles,[5],99.9%
same,Size (nm),[5],4.4 nm
same,% particles,[6],99.9%
same,Size (nm),[6],4.1 nm
same,% particles,[7],99.9%
same,Size (nm),[7],4.3 nm
same,% particles,[8],99.9%
same,Size (nm),[8],4.2 nm
same,% particles,[9],100%
same,Size (nm),[9],687 nm
B4,binding result,[10],binds
